Assay results: patent US20110217695A1

Target: IGF1R (on MCF-7 cells) (UniProt P08069)
Assay: cell-based or functional assay

UniProt P08069, sequence (P08069 31-1367 limits assumed): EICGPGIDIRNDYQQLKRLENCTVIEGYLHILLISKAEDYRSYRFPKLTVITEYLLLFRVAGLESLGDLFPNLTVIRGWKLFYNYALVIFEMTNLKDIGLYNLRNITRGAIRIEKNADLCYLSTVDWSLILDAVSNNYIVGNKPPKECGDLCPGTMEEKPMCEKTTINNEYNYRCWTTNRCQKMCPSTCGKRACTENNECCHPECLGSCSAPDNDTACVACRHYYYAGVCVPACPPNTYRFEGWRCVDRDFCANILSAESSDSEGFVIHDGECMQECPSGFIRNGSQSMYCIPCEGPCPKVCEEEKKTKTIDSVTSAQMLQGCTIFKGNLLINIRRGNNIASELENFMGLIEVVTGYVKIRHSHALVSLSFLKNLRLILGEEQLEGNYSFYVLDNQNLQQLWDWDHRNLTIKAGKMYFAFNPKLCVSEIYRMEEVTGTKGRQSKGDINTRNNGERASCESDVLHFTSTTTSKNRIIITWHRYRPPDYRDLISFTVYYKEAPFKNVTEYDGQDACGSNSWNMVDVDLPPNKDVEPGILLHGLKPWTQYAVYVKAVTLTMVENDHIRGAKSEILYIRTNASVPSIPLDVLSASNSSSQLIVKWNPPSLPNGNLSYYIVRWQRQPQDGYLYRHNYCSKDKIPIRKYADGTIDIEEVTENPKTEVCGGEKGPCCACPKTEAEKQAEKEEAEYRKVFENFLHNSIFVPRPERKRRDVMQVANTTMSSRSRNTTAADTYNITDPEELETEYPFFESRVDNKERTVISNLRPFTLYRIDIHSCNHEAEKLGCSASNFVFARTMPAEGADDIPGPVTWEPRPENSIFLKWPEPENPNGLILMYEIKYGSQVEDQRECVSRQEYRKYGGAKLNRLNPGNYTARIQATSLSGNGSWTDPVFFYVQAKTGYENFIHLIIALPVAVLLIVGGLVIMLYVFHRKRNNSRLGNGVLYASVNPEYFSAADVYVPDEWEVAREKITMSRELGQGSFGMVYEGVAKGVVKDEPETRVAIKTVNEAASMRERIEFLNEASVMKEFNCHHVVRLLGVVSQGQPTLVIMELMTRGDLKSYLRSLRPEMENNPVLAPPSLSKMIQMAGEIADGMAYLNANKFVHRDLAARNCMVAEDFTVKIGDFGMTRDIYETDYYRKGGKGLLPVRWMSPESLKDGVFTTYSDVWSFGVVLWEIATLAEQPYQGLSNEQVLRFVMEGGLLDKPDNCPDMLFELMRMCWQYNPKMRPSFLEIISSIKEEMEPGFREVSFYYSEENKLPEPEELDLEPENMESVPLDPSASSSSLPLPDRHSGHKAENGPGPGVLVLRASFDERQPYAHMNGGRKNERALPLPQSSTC

- % Inhibition, KIRA assay (IGF-I-stimulated receptor phosphorylation in MCF-7 cells), at 0.01 nM Ab (first row): -3.26%
- % Inhibition, KIRA assay (IGF-I-stimulated receptor phosphorylation in MCF-7 cells), at 0.01 nM Ab (second row): -0.34%
- % Inhibition, KIRA assay (IGF-I-stimulated receptor phosphorylation in MCF-7 cells), at 0.03 nM Ab: -3.18%
- % Inhibition, KIRA assay (IGF-I-stimulated receptor phosphorylation in MCF-7 cells), at 0.05 nM Ab: 0.87%
- % Inhibition, KIRA assay (IGF-I-stimulated receptor phosphorylation in MCF-7 cells), at 0.10 nM Ab: 3.82%
- % Inhibition, KIRA assay (IGF-I-stimulated receptor phosphorylation in MCF-7 cells), at 0.21 nM Ab: 10.1%
- % Inhibition, KIRA assay (IGF-I-stimulated receptor phosphorylation in MCF-7 cells), at 0.42 nM Ab: 18%
- % Inhibition, KIRA assay (IGF-I-stimulated receptor phosphorylation in MCF-7 cells), at 0.83 nM Ab: 39.4%
- % Inhibition, KIRA assay (IGF-I-stimulated receptor phosphorylation in MCF-7 cells), at 1.67 nM Ab: 40.5%
- % Inhibition, KIRA assay (IGF-I-stimulated receptor phosphorylation in MCF-7 cells), at 3.34 nM Ab: 54.6%
- % Inhibition, KIRA assay (IGF-I-stimulated receptor phosphorylation in MCF-7 cells), at 6.67 nM Ab: 69.6%
B1: 19D12 antibody (purified antibody obtained from 19D12 hybridoma) (antibody, from a related filing, V domains shown)
VH: EVQLVQSGGGLVHPGGSLRLSCAASGFTFSSFAMHWVRQAPGKGLEWISVIDTRGATYYADSVKGRFTISRDNAKNSLYLQMNSLRAEDMAVYYCARLGNFYYGMDVWGQGTTVTVSS
VL: EIVLTQVPDFQSVTPKEKVTITCRASQSIGSSLHWYQQKPDQSPKLLIKYASQSLSGVPSRFSGSGSGTDFTLTINSLEAEDAAAYYCHQSSRLPHTFGGGTKVEIKR
